The text below walks through data of PMC2974439 (Biochemistry, 2010).

The target of one data set is H6-CmnO. Description: co-purification after co-expression.
A further data set has as its target EntF+YbdZ (Escherichia coli, UniProt P11454). Description: substrate activation assay. Particulars: co-purified with YbdZ; two values for two different preparations. The data set is classed as biochemical.
A further data set addresses EntF (EntF-H6) (Escherichia coli, UniProt P11454). Briefly: substrate activation assay. In kind it is biochemical. To be noted: without YbdZ; two values for two different preparations.
Substrate in data set [1]: O=C(O)c1cccc(O)c1O
Description: substrate activation assay. To be noted: without YbdZ. The data set is classed as biochemical, Escherichia coli.

Sequence of EntF+YbdZ (P11454 whole entry): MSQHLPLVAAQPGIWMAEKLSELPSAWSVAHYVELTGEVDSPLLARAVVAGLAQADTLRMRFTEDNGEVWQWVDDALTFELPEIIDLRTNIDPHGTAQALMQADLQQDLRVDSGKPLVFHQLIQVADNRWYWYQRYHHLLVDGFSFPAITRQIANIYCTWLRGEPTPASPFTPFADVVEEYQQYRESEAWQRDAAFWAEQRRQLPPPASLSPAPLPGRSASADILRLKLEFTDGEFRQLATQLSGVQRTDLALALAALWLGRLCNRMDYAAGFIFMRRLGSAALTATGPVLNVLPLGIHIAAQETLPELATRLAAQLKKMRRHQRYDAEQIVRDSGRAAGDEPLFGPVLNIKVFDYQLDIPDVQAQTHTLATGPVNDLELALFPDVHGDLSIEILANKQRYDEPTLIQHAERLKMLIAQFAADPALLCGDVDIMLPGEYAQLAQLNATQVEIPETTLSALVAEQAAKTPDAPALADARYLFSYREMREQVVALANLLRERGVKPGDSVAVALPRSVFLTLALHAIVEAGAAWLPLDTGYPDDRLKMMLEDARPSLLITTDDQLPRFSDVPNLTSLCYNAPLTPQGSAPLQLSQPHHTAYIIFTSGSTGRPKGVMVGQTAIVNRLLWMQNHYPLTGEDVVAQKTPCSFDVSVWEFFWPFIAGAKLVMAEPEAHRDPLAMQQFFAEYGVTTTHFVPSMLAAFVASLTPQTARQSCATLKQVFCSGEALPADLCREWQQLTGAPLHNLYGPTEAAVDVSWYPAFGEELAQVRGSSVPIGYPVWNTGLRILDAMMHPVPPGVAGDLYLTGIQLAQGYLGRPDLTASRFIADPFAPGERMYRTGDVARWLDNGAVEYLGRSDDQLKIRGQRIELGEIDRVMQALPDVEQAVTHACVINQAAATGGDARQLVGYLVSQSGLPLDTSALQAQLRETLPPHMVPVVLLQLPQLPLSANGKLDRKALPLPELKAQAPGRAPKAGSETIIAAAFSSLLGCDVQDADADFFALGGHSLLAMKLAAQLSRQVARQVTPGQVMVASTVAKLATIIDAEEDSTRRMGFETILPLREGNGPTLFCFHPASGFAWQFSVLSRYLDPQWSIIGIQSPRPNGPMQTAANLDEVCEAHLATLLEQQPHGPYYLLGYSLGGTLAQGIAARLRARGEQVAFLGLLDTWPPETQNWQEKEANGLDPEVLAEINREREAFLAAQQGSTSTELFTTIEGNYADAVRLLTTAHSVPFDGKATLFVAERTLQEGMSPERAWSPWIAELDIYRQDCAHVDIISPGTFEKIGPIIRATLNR
Sequence of EntF+YbdZ (P18393 2-72 partner limits assumed): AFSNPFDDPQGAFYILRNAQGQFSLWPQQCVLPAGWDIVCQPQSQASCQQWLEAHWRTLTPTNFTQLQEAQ
Sequence of EntF (EntF-H6) (P11454 whole entry): as the sequence (P11454 whole entry) above

In turn, CmnN (natural protein) yielded a stoichiometry N (mol CmnN per mol H6-CmnO) with H6-CmnO of 0.42.
As to `N[C@@H](CO)C(=O)O` [L-Ser], the “Km ^a” value is reported as 655.9 ± 53.0, 240.1 ± 46.7 μM at EntF+YbdZ and 7162.1 ± 413.5, 4589.5 ± 313.0 μM at EntF (EntF-H6).

B1: EntE (H6-EntE) (Escherichia coli K-12) (protein)
chain: MSIPFTRWPEEFARRYREKGYWQDLPLTDILTRHAASDSIAVIDGERQLSYRELNQAADNLACSLRRQGIKPGETALVQLGNVAELYITFFALLKLGVAPVLALFSHQRSELNAYASQIEPALLIADRQHALFSGDDFLNTFVTEHSSIRVVQLLNDSGEHNLQDAINHPAEDFTATPSPADEVAYFQLSGGTTGTPKLIPRTHNDYYYSVRRSVEICQFTQQTRYLCAIPAAHNYAMSSPGSLGVFLAGGTVVLAADPSATLCFPLIEKHQVNVTALVPPAVSLWLQALIEGESRAQLASLKLLQVGGARLSATLAARIPAEIGCQLQQVFGMAEGLVNYTRLDDSAEKIIHTQGYPMCPDDEVWVADAEGNPLPQGEVGRLMTRGPYTFRGYYKSPQHNASAFDANGFYCSGDLISIDPEGYITVQGREKDQINRGGEKIAAEEIENLLLRHPAVIYAALVSMEDELMGEKSCAYLVVKEPLRAVQVRRFLREQGIAEFKLPDRVECVDSLPLTAVGKVDKKQLRQWLASRASA
What is called Km is the substrate concentration at which the rate is half of its maximum. On to B1, for which the Km in data set [1] was determined as 2.9 ± 0.4 µM.
